Residue numbers refer to the chain shown, from its start.
B1: human TRAF7 ZF-CC (fragment 221–379 aa) (domain or fragment, UniProt Q6Q0C0 221-379, looked up)
chain: DHEGSCDYRPVRCPNNPSCPPLLRMNLEAHLKECEHIKCPHSKYGCTFIGNQDTYETHLETCRFEGLKEFLQQTDDRFHEMHVALAQKDQEIAFLRSMLGKLSEKIDQLEKSLELKFDVLDENQSKLSEDLMEFRRDASMLNDELSHINARLNMGILGS
notes: source: E. coli BL21 (DE3), purified (nickel-NTA, Superdex 200 size-exclusion chromatography)
B2: human TRAF7 CC (270–379 aa) F337S (domain or fragment, UniProt Q6Q0C0 270-379, looked up)
chain: GNQDTYETHLETCRFEGLKEFLQQTDDRFHEMHVALAQKDQEIAFLRSMLGKLSEKIDQLEKSLELKSDVLDENQSKLSEDLMEFRRDASMLNDELSHINARLNMGILGS
notes: as for B1
B3: human TRAF7 CC (270–379 aa) Q310L (domain or fragment, UniProt Q6Q0C0 270-379, looked up)
chain: B2 chain with Q41L, S68F
notes: as for B1
B4: human TRAF7 CC (270–379 aa) I368S (domain or fragment, UniProt Q6Q0C0 270-379, looked up)
chain: B2 chain with S68F, I99S
notes: as for B1
B5: human TRAF7 CC (270–379 aa) K346E (domain or fragment, UniProt Q6Q0C0 270-379, looked up)
chain: B2 chain with S68F, K77E
notes: Variant found in patients with developmental disorders; source: E. coli BL21 (DE3), purified (nickel-NTA, Superdex 200 size-exclusion chromatography)
B6: human TRAF7 CC (270–379 aa) R371G (domain or fragment, UniProt Q6Q0C0 270-379, looked up)
chain: B2 chain with S68F, R102G
notes: as for B5
B7: human TRAF7 CC (fragment 270–379 aa) (domain or fragment, UniProt Q6Q0C0 270-379, looked up)
chain: B2 chain with S68F
notes: Cloned in pET32M3C; tags 'were cleaved by HRV 3C protease when needed'; also called TRAF7 CC region; TRAF7 coiled-coil domain; source: E. coli BL21 (DE3), purified (nickel-NTA, Superdex 200 size-exclusion chromatography)

Biological target: the molecule itself
Test: SEC-MALS; Superdex 200 gel filtration in 50 mM Tris pH 8.0, 100 mM NaCl, 10 mM EDTA, 1 mM DTT; three-angle light scattering (mini-DAWN TRISTAR) and refractive index detector; self-association (trimer)

| Protein | stoichiometry N | binding result |
| --- | --- | --- |
| B1 | 3 |  |
| B2 |  | binds |
| B3 |  | binds |
| B4 |  | binds |
| B5 |  | binds |
| B6 |  | binds |
| B7 | 3 |  |
